Measurements as given in PMC4301919, “Helical Defects in MicroRNA Influence Protein Binding by TAR RNA Binding Protein”.
Where a chain is given by its changes, count along the chain named.

Assays:
TRBP-ΔC-RBD1-Null [1] = target: T1, TRBP-ΔC-RBD1-Null (UniProt Q15633-2 9-215, K23A;K59A;K60A); assay: EMSA; apparent Kd; nH 3.1; 50 mM sodium cacodylate pH 7.0, 50 mM potassium glutamate, 5% glycerol; EMSA 0.5 pM RNA, 30 min at room temperature, gel 0.25X TBE at 10 C; CD at 10 C with 5-15 uM RNA; settings: protein: recombinant; label: 5'-32P top strand (EMSA); blunt
T1 sequence: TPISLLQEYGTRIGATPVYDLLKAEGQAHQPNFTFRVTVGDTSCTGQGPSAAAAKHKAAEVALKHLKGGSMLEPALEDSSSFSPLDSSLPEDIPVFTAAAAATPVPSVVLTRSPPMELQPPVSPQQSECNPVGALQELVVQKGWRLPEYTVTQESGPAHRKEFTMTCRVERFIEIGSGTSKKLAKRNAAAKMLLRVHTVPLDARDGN

TRBP-ΔC-RBD2-Null [2] = target: T2, TRBP-ΔC-RBD2-Null (UniProt Q15633-2 9-215, K150A;K189A;K190A); assay: EMSA; apparent Kd; nH 3.2; 50 mM sodium cacodylate pH 7.0, 50 mM potassium glutamate, 5% glycerol; EMSA 0.5 pM RNA, 30 min at room temperature, gel 0.25X TBE at 10 C; CD at 10 C with 5-15 uM RNA; settings: protein: recombinant; label: 5'-32P top strand (EMSA); blunt
T2 sequence: T1 sequence with A15K, A51K, A52K, K142A, K181A, K182A

TRBP-ΔC-RBD2-Null [3] = target: T2, TRBP-ΔC-RBD2-Null; assay: EMSA; apparent Kd; nH 2.0; 50 mM sodium cacodylate pH 7.0, 50 mM potassium glutamate, 5% glycerol; EMSA 0.5 pM RNA, 30 min at room temperature, gel 0.25X TBE at 10 C; CD at 10 C with 5-15 uM RNA; settings: protein: recombinant; label: 5'-32P top strand; imperfect duplex with U-bulge and A-A mismatch
TRBP-ΔC-RBD1-Null [4] = target: T1, TRBP-ΔC-RBD1-Null; assay: EMSA; apparent Kd; nH 3.0; 50 mM sodium cacodylate pH 7.0, 50 mM potassium glutamate, 5% glycerol; EMSA 0.5 pM RNA, 30 min at room temperature, gel 0.25X TBE at 10 C; CD at 10 C with 5-15 uM RNA; settings: protein: recombinant; label: 5'-32P top strand (EMSA); blunt
TRBP-ΔC-RBD2-Null [5] = target: T2, TRBP-ΔC-RBD2-Null; assay: EMSA; apparent Kd; nH 3.4; 50 mM sodium cacodylate pH 7.0, 50 mM potassium glutamate, 5% glycerol; EMSA 0.5 pM RNA, 30 min at room temperature, gel 0.25X TBE at 10 C; CD at 10 C with 5-15 uM RNA; settings: protein: recombinant; label: 5'-32P top strand (EMSA); blunt

B1: ds22 (dsRNA)
RNA 1: GUCAGCAGUGCCUUAGCAGCAC
RNA 2: GUGCUGCUAAGGCACUGCUGAC
For B1, the Kd (TRBP-ΔC-RBD1-Null [1]) was 2290 ± 80 nM and the Kd (TRBP-ΔC-RBD2-Null [2]) was 340 ± 10 nM.

B2: miR-16-1/miR-16-1* (dsRNA)
RNA 1: UAGCAGCACGUAAAUAUUGGCG
RNA 2: CCAGUAUUAACUGUGCUGCUGAA
B2 showed a Kd (TRBP-ΔC-RBD2-Null [3]) of 900 ± 100 nM.

B3: ds33 (dsRNA)
RNA 1: GGUCAGCAGUGCCUUAGCAGCACGUAAAUAUGG
RNA 2: CCAUAUUUACGUGCUGCUAAGGCACUGCUGACC
Binder B3 has a Kd (TRBP-ΔC-RBD1-Null [4]) of 1220 ± 70 nM and a Kd (TRBP-ΔC-RBD2-Null [5]) of 440 ± 50 nM.
